In publication PMC6984350 (Structure (London, England : 1993), 2018):

T1: Filamin A domains 4-6, wild type (human, UniProt P21333 571-861)
T1 sequence (looked up): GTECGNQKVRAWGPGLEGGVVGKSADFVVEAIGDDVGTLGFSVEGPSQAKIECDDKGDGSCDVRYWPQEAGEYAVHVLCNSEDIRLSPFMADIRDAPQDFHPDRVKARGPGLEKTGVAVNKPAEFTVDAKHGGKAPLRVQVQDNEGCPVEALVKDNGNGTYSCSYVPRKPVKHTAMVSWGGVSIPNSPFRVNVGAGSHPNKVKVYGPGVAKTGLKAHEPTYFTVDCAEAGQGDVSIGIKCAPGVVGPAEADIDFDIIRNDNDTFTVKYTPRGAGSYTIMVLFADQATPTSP

B1: PTPN12–600-709 (domain or fragment, UniProt Q05209 600-709, looked up)
chain: PLHSDDSDSDERNSDGAVTQNKTNISTASATVSAATSTESISTRKVLPMSIARHNIAGTTHSGAEKDVDVSEDSPPPLPERTPESFVLASEHNTPVRSEWSELQSQERSE
B2: PTPN12 600–673 (domain or fragment, UniProt Q05209 600-673, looked up)
chain: PLHSDDSDSDERNSDGAVTQNKTNISTASATVSAATSTESISTRKVLPMSIARHNIAGTTHSGAEKDVDVSEDS
B3: PTPN12 C-terminal domain (600–780) (domain or fragment, UniProt Q05209 600-780, looked up)
chain: PLHSDDSDSDERNSDGAVTQNKTNISTASATVSAATSTESISTRKVLPMSIARHNIAGTTHSGAEKDVDVSEDSPPPLPERTPESFVLASEHNTPVRSEWSELQSQERSEQKKSEGLITSENEKCDHPAGGIHYEMCIECPPTFSDKREQISENPTEATDIGFGNRCGKPKGPRDPPSEWT
B4: PTPN12 634–709 (domain or fragment, UniProt Q05209 634-709, looked up)
chain: ATSTESISTRKVLPMSIARHNIAGTTHSGAEKDVDVSEDSPPPLPERTPESFVLASEHNTPVRSEWSELQSQERSE

Biological target: T1, Filamin A domains 4-6, wild type
Experiment: SPR

How did the Kd turn out when B1 was run?
Its Kd is 0.32 µM.

How did the Kd turn out when PLHSDDSDSDERNSDGAVTQNKTNISTASATVSAA (domain or fragment, UniProt Q05209 600-634, looked up) [PTPN12–600-634] was run?
The Kd was over 10000 µM.

B2 was tested. Which Kd did it give?
The Kd was over 10000 µM.

B3 was tested. Which Kd did it give?
The Kd was about 0.33 µM.

How did the Kd turn out when B4 was run?
The Kd was 0.27 µM.
